In the supplement of paper PMC5998384:

Legend:
[1] = system: HeLa Kyoto; test: solubility change mitosis vs G1/S (difference of NP-40 vs SDS log2 ratios) (log2 ratio difference); higher = more soluble in mitosis
[2] = system: HeLa Kyoto; test: thermal stability score vs G1/S (z-score of summed log2 fold changes over temperatures); higher = more thermally stable than in G1/S
[3] = system: HeLa Kyoto; test: solubility in G1/S (NP-40 vs SDS abundance) (log2 ratio); higher = more soluble; settings: cell cycle stage: G1/S
[4] = system: HeLa Kyoto; test: melting temperature (median over replicates), in situ; higher = more thermally stable
[5] = cell cycle stage: early G1 (4.5 h after nocodazole release)
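Throughout, for melting temperature (median over replicates), in situ: HeLa Kyoto cells synchronized by double thymidine or nocodazole block, proteins quantified by TMT10plex mass spectrometry, three independent biological replicates.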
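Throughout, for solubility change mitosis vs G1/S (difference of NP-40 vs SDS log2 ratios): synchronized HeLa Kyoto cells (double thymidine block for G1/S, nocodazole release for mitosis), protein amounts in NP-40 versus SDS lysates quantified by mass spectrometry, three biological replicates.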
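Throughout, for solubility in G1/S (NP-40 vs SDS abundance): HeLa Kyoto cells arrested at G1/S by double thymidine block, proteins quantified by TMT10plex mass spectrometry in mild NP-40 versus SDS extracts, three biological replicates.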
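Throughout, for thermal stability score vs G1/S (z-score of summed log2 fold changes over temperatures): synchronized HeLa Kyoto cells, proteins quantified by TMT10plex mass spectrometry, three biological replicates, mitosis taken 0.5 h after nocodazole release, G1/S directly after double thymidine block.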

| Sequence | solubility change mitosis (log2) [1] | thermal stability score [2, 5] | thermal stability score ([2]; cell cycle stage: mitosis) | solubility in G1/S (log2) [3] | melting temperature ([4]; cell cycle stage: G1/S) [°C] | melting temperature ([4]; cell cycle stage: mitosis) [°C] |
| --- | --- | --- | --- | --- | --- | --- |
| MAAEVYFGDLELFEPFDHPEESIPKPVHTRFKDDDGDEEDENGVGDAELRERLRQCEETIEQLRAENQELKRKLNILTRPSGILVNDTKLDGPILQILFMNNAISKQYHQEIEEFVSNLVKRFEEQQKNDVEKTSFNLLPQPSSIVLEEDHKVEESCAIKNNKEAFSVVGSVLYFTNFCLDKLGQPLLNENPQLSEGWEIPKYHQVFSHIVSLEGQEIQVKAKRPKPHCFNCGSEEHQMKDCPMPRNAARISEKRKEYMDACGEANNQNFQQRYHAEEVEERFGRFKPGVISEELQDALGVTDKSLPPFIYRMRQLGYPPGWLKEAELENSGLALYDGKDGTDGETEVGEIQQNKSVTYDLSKLVNYPGFNISTPRGIPDEWRIFGSIPMQACQQKDVFANYLTSNFQAPGVKSGNKRSSSHSSPGSPKKQKNESNSAGSPADMELDSDMEVPHGSQSSESFQFQPPLPPDTPPLPRGTPPPVFTPPLPKGTPPLTPSDSPQTRTASGAVDEDALTLEELEEQQRRIWAALEQAESVNSDSDVPVDTPLTGNSVASSPCPNELDLPVPEGKTSEKQTLDEPEVPEIFTKKSEAGHASSPDSEVTSLCQKEKAELAPVNTEGALLDNGSVVPNCDISNGGSQKLFPADTSPSTATKIHSPIPDMSKFATGITPFEFENMAESTGMYLRIRSLLKNSPRNQQKNKKASE [ZCCHC8] | -0.117 | 0.273 | 0.547 | 0.0806 | 51 | 52.4 |
| MAAFAVEPQGPALGSEPMMLGSPTSPKPGVNAQFLPGFLMGDLPAPVTPQPRSISGPSVGVMEMRSPLLAGGSPPQPVVPAHKDKSGAPPVRSIYDDISSPGLGSTPLTSRRQPNISVMQSPLVGVTSTPGTGQSMFSPASIGQPRKTTLSPAQLDPFYTQGDSLTSEDHLDDSWVTVFGFPQASASYILLQFAQYGNILKHVMSNTGNWMHIRYQSKLQARKALSKDGRIFGESIMIGVKPCIDKSVMESSDRCALSSPSLAFTPPIKTLGTPTQPGSTPRISTMRPLATAYKASTSDYQVISDRQTPKKDESLVSKAMEYMFGW [NUP35] | -0.0493 | -2.22 | -0.679 | 0.209 | 52.3 | 52 |
| MAAFLKMSVSVNFFRPFTRFLVPFTLHRKRNNLTILQRYMSSKIPAVTYPKNESTPPSEELELDKWKTTMKSSVQEECVSTISSSKDEDPLAATREFIEMWRLLGREVPEHITEEELKTLMECVSNTAKKKYLKYLYTKEKVKKARQIKKEMKAAAREEAKNIKLLETTEEDKQKNFLFLRLWDRNMDIAMGWKGAQAMQFGQPLVFDMAYENYMKRKELQNTVSQLLESEGWNRRNVDPFHIYFCNLKIDGALHRELVKRYQEKWDKLLLTSTEKSHVDLFPKDSIIYLTADSPNVMTTFRHDKVYVIGSFVDKSMQPGTSLAKAKRLNLATECLPLDKYLQWEIGNKNLTLDQMIRILLCLKNNGNWQEALQFVPKRKHTGFLEISQHSQEFINRLKKAKT [TRMT10C] | -0.114 | 0.276 | 0.67 | -0.0196 | 51.3 | 51.9 |
| MAAGAGTAGPASGPGVVRDPAASQPRKRPGREGGEGARRSDTMAGGGGSSDGSGRAAGRRASRSSGRARRGRHEPGLGGPAERGAGEARLEEAVNRWVLKFYFHEALRAFRGSRYGDFRQIRDIMQALLVRPLGKEHTVSRLLRVMQCLSRIEEGENLDCSFDMEAELTPLESAINVLEMIKTEFTLTEAVVESSRKLVKEAAVIICIKNKEFEKASKILKKHMSKDPTTQKLRNDLLNIIREKNLAHPVIQNFSYETFQQKMLRFLESHLDDAEPYLLTMAKKALKSESAASSTGKEDKQPAPGPVEKPPREPARQLRNPPTTIGMMTLKAAFKTLSGAQDSEAAFAKLDQKDLVLPTQALPASPALKNKRPRKDENESSAPADGEGGSELQPKNKRMTISRLVLEEDSQSTEPSAGLNSSQEAASAPPSKPTVLNQPLPGEKNPKVPKGKWNSSNGVEEKETWVEEDELFQVQAAPDEDSTTNITKKQKWTVEESEWVKAGVQKYGEGNWAAISKNYPFVNRTAVMIKDRWRTMKRLGMN [TERF2] | 0.0937 | 1.08 | 1.27 | 0.0628 | 48.9 | 50.3 |
| MAAGGSTQQRRREMAAASAAAISGAGRCRLSKIGATRRPPPARVRVAVRLRPFVDGTAGASDPPCVRGMDSCSLEIANWRNHQETLKYQFDAFYGERSTQQDIYAGSVQPILRHLLEGQNASVLAYGPTGAGKTHTMLGSPEQPGVIPRALMDLLQLTREEGAEGRPWALSVTMSYLEIYQEKVLDLLDPASGDLVIREDCRGNILIPGLSQKPISSFADFERHFLPASRNRTVGATRLNQRSSRSHAVLLVKVDQRERLAPFRQREGKLYLIDLAGSEDNRRTGNKGLRLKESGAINTSLFVLGKVVDALNQGLPRVPYRDSKLTRLLQDSLGGSAHSILIANIAPERRFYLDTVSALNFAARSKEVINRPFTNESLQPHALGPVKLSQKELLGPPEAKRARGPEEEEIGSPEPMAAPASASQKLSPLQKLSSMDPAMLERLLSLDRLLASQGSQGAPLLSTPKRERMVLMKTVEEKDLEIERLKTKQKELEAKMLAQKAEEKENHCPTMLRPLSHRTVTGAKPLKKAVVMPLQLIQEQAASPNAEIHILKNKGRKRKLESLDALEPEEKAEDCWELQISPELLAHGRQKILDLLNEGSARDLRSLQRIGPKKAQLIVGWRELHGPFSQVEDLERVEGITGKQMESFLKANILGLAAGQRCGAS [KIF22] | 0.342 | 1.72 | 2.31 | -0.459 | 50 | 48.2 |
| MAAGKSGGSAGEITFLEALARSESKRDGGFKNNWSFDHEEESEGDTDKDGTNLLSVDEDEDSETSKGKKLNRRSEIVANSSGEFILKTYVRRNKSESFKTLKGNPIGLNMLSNNKKLSENTQNTSLCSGTVVHGRRFHHAHAQIPVVKTAAQSSLDRKERKEYPPHVQKVEINPVRLSRLQGVERIMKKTEESESQVEPEIKRKVQQKRHCSTYQPTPPLSPASKKCLTHLEDLQRNCRQAITLNESTGPLLRTSIHQNSGGQKSQNTGLTTKKFYGNNVEKVPIDIIVNCDDSKHTYLQTNGKVILPGAKIPKITNLKERKTSLSDLNDPIILSSDDDDDNDRTNRRESISPQPADSACSSPAPSTGKVEAALNENTCRAERELRSIPEDSELNTVTLPRKARMKDQFGNSIINTPLKRRKVFSQEPPDALALSCQSSFDSVILNCRSIRVGTLFRLLIEPVIFCLDFIKIQLDEPDHDPVEIILNTSDLTKCEWCNVRKLPVVFLQAIPAVYQKLSIQLQMNKEDKVWNDCKGVNKLTNLEEQYIILIFQNGLDPPANMVFESIINEIGIKNNISNFFAKIPFEEANGRLVACTRTYEESIKGSCGQKENKIKTVSFESKIQLRSKQEFQFFDEEEETGENHTIFIGPVEKLIVYPPPPAKGGISVTNEDLHCLNEGEFLNDVIIDFYLKYLVLEKLKKEDADRIHIFSSFFYKRLNQRERRNHETTNLSIQQKRHGRVKTWTRHVDIFEKDFIFVPLNEAAHWFLAVVCFPGLEKPKYEPNPHYHENAVIQKCSTVEDSCISSSASEMESCSQNSSAKPVIKKMLNKKHCIAVIDSNPGQEESDPRYKRNICSVKYSVKKINHTASENEEFNKGESTSQKVADRTKSENGLQNESLSSTHHTDGLSKIRLNYSDESPEAGKMLEDELVDFSEDQDNQDDSSDDGFLADDNCSSEIGQWHLKPTICKQPCILLMDSLRGPSRSNVVKILREYLEVEWEVKKGSKRSFSKDVMKGSNPKVPQQNNFSDCGVYVLQYVESFFENPILSFELPMNLANWFPPPRMRTKREEIRNIILKLQEDQSKEKRKHKDTYSTEAPLGEGTEQYVNSISD [SENP6] | 0.144 | -0.65 | 0.269 | -0.261 | 51.8 | 52.5 |
| MAAKGAHGSYLKVESELERCRAEGHWDRMPELVRQLQTLSMPGGGGNRRGSPSAAFTFPDTDDFGKLLLAEALLEQCLKENHAKIKDSMPLLEKNEPKMSEAKNYLSSILNHGRLSPQYMCEAMLILGKLHYVEGSYRDAISMYARAGIDDMSMENKPLYQMRLLSEAFVIKGLSLERLPNSIASRFRLTEREEEVITCFERASWIAQVFLQELEKTTNNSTSRHLKGCHPLDYELTYFLEAALQSAYVKNLKKGNIVKGMRELREVLRTVETKATQNFKVMAAKHLAGVLLHSLSEECYWSPLSHPLPEFMGKEESSFATQALRKPHLYEGDNLYCPKDNIEEALLLLLISESMATRDVVLSRVPEQEEDRTVSLQNAAAIYDLLSITLGRRGQYVMLSECLERAMKFAFGEFHLWYQVALSMVACGKSAYAVSLLRECVKLRPSDPTVPLMAAKVCIGSLRWLEEAEHFAMMVISLGEEAGEFLPKGYLALGLTYSLQATDATLKSKQDELHRKALQTLERAQQLAPSDPQVILYVSLQLALVRQISSAMEQLQEALKVRKDDAHALHLLALLFSAQKHHQHALDVVNMAITEHPENFNLMFTKVKLEQVLKGPEEALVTCRQVLRLWQTLYSFSQLGGLEKDGSFGEGLTMKKQSGMHLTLPDAHDADSGSRRASSIAASRLEEAMSELTMPSSVLKQGPMQLWTTLEQIWLQAAELFMEQQHLKEAGFCIQEAAGLFPTSHSVLYMRGRLAEVKGNLEEAKQLYKEALTVNPDGVRIMHSLGLMLSRLGHKSLAQKVLRDAVERQSTCHEAWQGLGEVLQAQGQNEAAVDCFLTALELEASSPVLPFSIIPREL [TTC7A] | -0.168 | 0.0827 | -0.515 | 0.161 | 51.2 | – |
| MAAKVFESIGKFGLALAVAGGVVNSALYNVDAGHRAVIFDRFRGVQDIVVGEGTHFLIPWVQKPIIFDCRSRPRNVPVITGSKDLQNVNITLRILFRPVASQLPRIFTSIGEDYDERVLPSITTEILKSVVARFDAGELITQRELVSRQVSDDLTERAATFGLILDDVSLTHLTFGKEFTEAVEAKQVAQQEAERARFVVEKAEQQKKAAIISAEGDSKAAELIANSLATAGDGLIELRKLEAAEDIAYQLSRSRNITYLPAGQSVLLQLPQ [PHB] | -0.0774 | -1.45 | -2.71 | -0.137 | 59.5 | 58.1 |
| MAALGPSSQNVTEYVVRVPKNTTKKYNIMAFNAADKVNFATWNQARLERDLSNKKIYQEEEMPESGAGSEFNRKLREEARRKKYGIVLKEFRPEDQPWLLRVNGKSGRKFKGIKKGGVTENTSYYIFTQCPDGAFEAFPVHNWYNFTPLARHRTLTAEEAEEEWERRNKVLNHFSIMQQRRLKDQDQDEDEEEKEKRGRRKASELRIHDLEDDLEMSSDASDASGEEGGRVPKAKKKAPLAKGGRKKKKKKGSDDEAFEDSDDGDFEGQEVDYMSDGSSSSQEEPESKAKAPQQEEGPKGVDEQSDSSEESEEEKPPEEDKEEEEEKKAPTPQEKKRRKDSSEESDSSEESDIDSEASSALFMAKKKTPPKRERKPSGGSSRGNSRPGTPSAEGGSTSSTLRAAASKLEQGKRVSEMPAAKRLRLDTGPQSLSGKSTPQPPSGKTTPNSGDVQVTEDAVRRYLTRKPMTTKDLLKKFQTKKTGLSSEQTVNVLAQILKRLNPERKMINDKMHFSLKE [GTF2F1] | 0.126 | -0.52 | -1.74 | 0.237 | 52.7 | 53.3 |
| MAALTLRGVRELLKRVDLATVPRRHRYKKKWAATEPKFPAVRLALQNFDMTYSVQFGDLWPSIRVSLLSEQKYGALVNNFAAWDHVSAKLEQLSAKDFVNEAISHWELQSEGGQSAAPSPASWACSPNLRCFTFDRGDISRFPPARPGSLGVMEYYLMDAASLLPVLALGLQPGDIVLDLCAAPGGKTLALLQTGCCRNLAANDLSPSRIARLQKILHSYVPEEIRDGNQVRVTSWDGRKWGELEGDTYDRVLVDVPCTTDRHSLHEEENNIFKRSRKKERQILPVLQVQLLAAGLLATKPGGHVVYSTCSLSHLQNEYVVQGAIELLANQYSIQVQVEDLTHFRRVFMDTFCFFSSCQVGELVIPNLMANFGPMYFCKMRRLT [NSUN4] | 0.115 | 0.266 | 0.044 | -0.195 | 51.7 | 51.9 |
